Read-outs that look alike come from different tables or passages of the source.
How the values were obtained:
[1] = molecular target: HCV E2 envelope glycoprotein (hepatitis C virus, UniProt P27958 384-746); assay: ELISA of E2 on AP33 alanine mutants
[2] = molecular target: AP33 antibody (wild type mouse monoclonal)
[3] = molecular target: T1, AP33 antibody (wild type mouse monoclonal); assay: SPR, B2.1A scFv amine-coupled to CM4 chip, AP33 injected, single-cycle kinetics
T1 construct: also called WT AP33; Ab1

[4] = molecular target: T1, AP33 antibody (wild type mouse …); assay: SPR, B2.1A scFv amine-coupled to CM5 chip, AP33 injected, single-cycle kinetics
[5] = molecular target: T1, AP33 antibody (wild type mouse …); assay: Ab2 binding screen
[6] = molecular target: T2, AP33 light-chain alone (Mus musculus (Mouse), UniProt P01661 21-131); assay: Ab2 binding screen
T2 construct: also called AP33 LC; LC

Sequence of HCV E2 envelope glycoprotein (P27958 384-746 limits assumed): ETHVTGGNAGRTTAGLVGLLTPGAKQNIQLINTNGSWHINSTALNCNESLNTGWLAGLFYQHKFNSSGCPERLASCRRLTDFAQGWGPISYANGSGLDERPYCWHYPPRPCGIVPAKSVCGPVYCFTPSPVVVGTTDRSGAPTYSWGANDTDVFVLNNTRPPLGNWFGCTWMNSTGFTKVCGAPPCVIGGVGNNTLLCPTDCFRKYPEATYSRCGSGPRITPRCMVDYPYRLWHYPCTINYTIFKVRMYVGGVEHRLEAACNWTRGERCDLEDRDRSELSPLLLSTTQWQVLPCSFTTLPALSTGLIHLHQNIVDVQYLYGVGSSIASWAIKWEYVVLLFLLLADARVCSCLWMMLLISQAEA

B1: AP33 mutant YH50A (antibody, V domains shown)
VH: EVQLQESGPSLVKPSQTLSLTCSVTGDSITSGYWNWIRKFPGNKLEYMGAISYSGSTYYNLSLRSRISITRDTSKNQYYLQLNSVTTEDTATYYCALITTTTYAMDYWGQGTSVTVS
VL: NIVLTQSPVSLAVSLGQRATISCRASESVDGYGNSFLHWFQQKPGQPPKLLIYLASNLNSGVPARFSGSGSRTDFTLTIDPVEADDAATYYCQQNNVDPWTFGGGTKLEIK
reduction of binding relative to WT AP33 [1]: 90%

B2: AP33 mutant YH100A (antibody, V domains shown)
VH: EVQLQESGPSLVKPSQTLSLTCSVTGDSITSGYWNWIRKFPGNKLEYMGYISYSGSTYYNLSLRSRISITRDTSKNQYYLQLNSVTTEDTATYYCALITTTTAAMDYWGQGTSVTVS
VL: NIVLTQSPVSLAVSLGQRATISCRASESVDGYGNSFLHWFQQKPGQPPKLLIYLASNLNSGVPARFSGSGSRTDFTLTIDPVEADDAATYYCQQNNVDPWTFGGGTKLEIK
reduction of binding relative to WT AP33 [1]: 90%

B3: B2.1A scFv (scFv)
scFv: DANSQVQLQESGTELVKPGASVKLSCKASGYTFTNYWMHWVKQRPGQGLEWIGEINPSDGHTNYNEKFKSKATLTVDKSSSTAYMQLSSLTSEDSAVYYCARPWAFGNYGAWFAYWGQGTLVTVSAGGSGGSGGGGSGGGGSGGGASDIVMTQSPKFMSTSVGDRVSITCKASQNVRTAVAWYQQKPGQSPKALIYLASSRHTGVPDRFTGSGSGTDFTLTISNVQSEDLADYFCLQHWNYPYTFGGGTKLEIKSRHHHHHH
notes: also called single-chain variable fragment (scFv) of B2.1A; Ab2
Kd [2]: 8 nM | koff [2]: 0.00039 s⁻¹ | kon [2]: 48700 M⁻¹ s⁻¹ | Kd [3]: 20.7 nM | koff [3]: 0.000243 s⁻¹ | kon [3]: 11800 M⁻¹ s⁻¹ | Kd [4]: 28.6 nM | koff [4]: 0.000321 s⁻¹ | kon [4]: 11200 M⁻¹ s⁻¹

B4: B2.1A antibody (antibody, V domains shown)
VH: QVQLQESGTELVKPGASVKLSCKASGYTFTNYWMHWVKQRPGQGLEWIGEINPSDGHTNYNEKFKSKATLTVDKSSSTAYMQLSSLTSEDSAVYYCARPWAFGNYGAWFAYWGQGTLVTVSA
VL: DIVMTQSPKFMSTSVGDRVSITCKASQNVRTAVAWYQQKPGQSPKALIYLASSRHTGVPDRFTGSGSGTDFTLTISNVQSEDLADYFCLQHWNYPYTFGGGTKLEIKR
notes: also called anti-Id B2.1A; Ab2
binding result [5]: binds | binding result [6]: no binding

Reference: patent publication US20170283484A1 (UNITED KINGDOM RESEARCH AND INNOVATION, published 2017)
